Results taken from the supplement of paper PMC10126150.
± gives the standard deviation of the averaged measurements.

Tested on: ATP
Experiment: switch fluorescence ratio, 500 uM ATP over buffer (Cy3 cluster intensity, sum of 5 cycles each) (fold (ratio)); higher = stronger signal-on switching upon ATP binding; sequences stand for … in TCGTCGGCAGCGTCAGATGTGTATAAGAGACAGTTTTTTTTTTTTTTTTTTTTTTTTT…TC
Details: aptamer strand: ATP DNA aptamer (quencher-CACCTGGGGGAGTATTGCGGAGGAAGG + anchor), 100 nM annealed; ATP concentration: 500 uM
Method in brief: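 Between each of five buffer/ATP cycles, the flow-cell was stripped with NaOH and re-annealed. Each cycle imaged Cy3-labelled switching-strand clusters, annealed to 100 nM quencher-labelled ATP aptamer on a modified Illumina MiSeq flow-cell, first in selection buffer and then after 15 min with 500 uM ATP at 22 °C. The fluorescence ratio is summed target-cycle over summed buffer-cycle Cy3 intensity per cluster, averaged per switch-domain sequence, with clusters outside 100-1000 RFU excluded.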
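Also: ATP exposure 15 min at 22 °C before imaging.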

| Sequence | switch fluorescence ratio |
| --- | --- |
| TGAAAGTGGA | 1.05 ± 0.034 |
| TCAATCAGAG | 1.01 ± 0.0045 |
| CAGTAATTGC | 1.05 ± 0.023 |
| TCGTGGCATA | 1.11 ± 0.044 |
| TTATAATAGG | 1.02 ± 0.032 |
| GGGGTTGGCT | 0.995 ± 0.03 |
| TAGATTTGTT | 1.01 ± 0.03 |
| GATTCGAATC | 1 ± 0.034 |
| CGAGCTTTGA | 1.034 ± 0.0084 |
| CTGTTTTTTT | 0.981 ± 0.039 |
| ATGTTTGCCT | 1.002 ± 0.0087 |
| ACGCGGGACA | 1.04 ± 0.014 |
| TTCGATTTGG | 1.03 ± 0.0072 |
| AGGTTGTGAC | 0.989 ± 0.029 |
| GCTGCTGTTG | 1.06 ± 0.049 |
| GTGGAAGGCG | 0.975 ± 0.03 |
| GATGAATTGG | 0.975 ± 0.012 |
| CGTTACGGGG | 0.9788 ± 0.0055 |
| TTTGAGTCGG | 0.957 ± 0.0034 |
| TTTGACATGT | 0.975 ± 0.038 |
| CATTTTTAAG | 1 ± 0.011 |
| CTTTTACATG | 1.003 ± 0.0095 |
| TAAGGGGGG | 1.01 ± 0.029 |
| TGACAATGTT | 0.994 ± 0.052 |
| GACAAGTATT | 1.01 ± 0.013 |
| GTGTTAGTCC | 1.05 ± 0.11 |

| Sequence | switch fluorescence ratio |
| --- | --- |
| TTAGTTGAGA | 1 ± 0.045 |
| GAAGCGTTTG | 0.98 ± 0.039 |
| CGAGGGGGCT | 0.99 ± 0.02 |
| ACTTGGCGTC | 1.02 ± 0.06 |
| ATAGTCCATA | 0.991 ± 0.015 |
| CAGTAGAATA | 1.02 ± 0.022 |
| AAACGGTAGC | 1.07 ± 0.017 |
| GAGTATGGGA | 0.983 ± 0.034 |
| GGTGTACGGA | 0.972 ± 0.043 |
| GCTTGTGCTG | 0.978 ± 0.053 |
| CATGGGTTGC | 0.99 ± 0.029 |
| CTTAGTGGGG | 0.962 ± 0.048 |
| TTTTGCGTCT | 1.06 ± 0.071 |
| CTAATGGACC | 1.01 ± 0.03 |
| TTAGTGATAC | 2.49 ± 0.42 |
| TTAAGGCATT | 1.06 ± 0.03 |
| GTTCATGGTA | 0.99 ± 0.0028 |
| GAGTTTTGGA | 1.02 ± 0.026 |
| ACAAGACTGT | 1.04 ± 0.048 |
| ATCAATGAAC | 1.05 ± 0.018 |
| GGGTCATGTC | 0.934 ± 0.052 |
| CGTAAGCGAG | 1.03 ± 0.062 |
| AATCGGGTTT | 0.953 ± 0.02 |
| GTATGAATCG | 0.961 ± 0.056 |
| GTTGAAACTT | 0.9976 ± 0.004 |
| TGAAGGTTAC | 1.02 ± 0.012 |

| Sequence | switch fluorescence ratio |
| --- | --- |
| CTGGGGGGGC | 1.01 ± 0.043 |
| AGGATGCTCA | 1.01 ± 0.011 |
| AAAACGAAAT | 1.02 ± 0.032 |
| TGGGTTAGCG | 0.995 ± 0.041 |
| GGGATTAACT | 1 ± 0.031 |
| CAAAACGGTT | 1.02 ± 0.048 |
| AATTACGGTG | 1.05 ± 0.022 |
| TGGGGAATGT | 1.01 ± 0.042 |
| ACGGGTGGCA | 0.986 ± 0.019 |
| TTATGAGGCA | 0.978 ± 0.026 |
| ACTATGGTAA | 0.9704 ± 0.008 |
| TATTATAGAT | 0.99997 ± 0.00069 |
| TTGGAAATTA | 1.036 ± 0.0082 |
| GAGGATTTTG | 1.003 ± 0.0089 |
| CACTTACGTT | 1.347 ± 0.012 |
| TTAGACGATT | 0.998 ± 0.025 |
| TTTTCCAAGG | 1.06 ± 0.031 |
| GTAGGGAACC | 0.976 ± 0.025 |
| GACCAACAGT | 1.03 ± 0.021 |
| ATTTTTGGGA | 0.981 ± 0.028 |
| TTGGTTGGGT | 0.997 ± 0.041 |
| GGGCATCTTT | 1 ± 0.06 |
| ATGAGCATCT | 0.996 ± 0.01 |
| TAATTGAAAA | 1.14 ± 0.15 |
| GCTTCCTTTT | 1.01 ± 0.022 |
| ACATGTTGGT | 1.02 ± 0.028 |

| Sequence | switch fluorescence ratio |
| --- | --- |
| GATCATTGAC | 1.066 ± 0.0057 |
| CATCTGCGGG | 1.16 ± 0.17 |
| GGGGACGACC | 1.03 ± 0.017 |
| AAGCAGAGGC | 1.004 ± 0.0031 |
| CGTCACCATG | 1.037 ± 0.0026 |
| CTGAAGGCCC | 1.02 ± 0.019 |
| AGGTCTAGC | 0.995 ± 0.017 |
| ATCGCGGTGC | 1.64 ± 0.33 |
| TAATAGGGTG | 1.08 ± 0.042 |
| AATTTACGTG | 1.06 ± 0.011 |
| AATTTTTAT | 1 ± 0.0022 |
| CCAGCTAGTT | 1.05 ± 0.086 |
| GGTACTAGGC | 1.04 ± 0.08 |
| TTGGCATAGT | 0.989 ± 0.031 |
| AAATCAGATA | 0.987 ± 0.033 |
| TGTTGTGTGT | 0.985 ± 0.028 |
| GTAGCCCGGG | 0.993 ± 0.026 |
| TTAGCTTGAG | 1.01 ± 0.013 |
| ACTGATGGTA | 1.02 ± 0.025 |
| TATCTTAAAT | 0.997 ± 0.028 |
| GGCCTTATTG | 1 ± 0.031 |
| TGGCTAGGAC | 1.01 ± 0.04 |
| AGCAAAGAAT | 1.02 ± 0.042 |
| CGGTAACGAA | 1.04 ± 0.014 |
| ACATTTTGG | 1.002 ± 0.0081 |
| CACTGTGTTG | 0.987 ± 0.035 |

| Sequence | switch fluorescence ratio |
| --- | --- |
| ATAAGCATGT | 1.02 ± 0.034 |
| CAGGGACTGG | 1 ± 0.072 |
| GGATGTGCG | 0.961 ± 0.05 |
| AGTTAGGAAG | 0.973 ± 0.011 |
| CGTGTGGAAA | 1.02 ± 0.018 |
| TCTTGGTTTC | 0.997 ± 0.013 |
| GGATCGTCGG | 0.96 ± 0.019 |
| TTTCTTAGTT | 1.04 ± 0.017 |
| GTTTATGCCA | 0.997 ± 0.029 |
| CTAATGGGTT | 0.98 ± 0.037 |
| TATGTAATGG | 1.02 ± 0.036 |
| ATATTGATAT | 1.01 ± 0.021 |
| CCATTCTTGG | 0.977 ± 0.018 |
| ACGAAGGATA | 1.04 ± 0.014 |
| ATTGGTTTCT | 1.04 ± 0.074 |
| ATGGTATAGG | 1.01 ± 0.032 |
| GAATTCCGTA | 1.03 ± 0.042 |
| CTCGGCGGAG | 1.026 ± 0.0082 |
| AATGCTGGGG | 1.05 ± 0.081 |
| GCTGGGGCAA | 1.01 ± 0.037 |
| GGTTTAAATT | 1 ± 0.018 |
| AACAAGTAAT | 1 ± 0.018 |
| GGTCTTGGCA | 0.985 ± 0.052 |
| ACGGACGGGG | 1.11 ± 0.036 |
| GGTGTTGGCT | 1.02 ± 0.059 |
| GGTGGAGCCC | 0.962 ± 0.04 |

| Sequence | switch fluorescence ratio |
| --- | --- |
| ATATAAGCGG | 1.02 ± 0.047 |
| GGTTTTGACA | 0.9941 ± 0.0065 |
| AGGTGGGTCT | 0.991 ± 0.011 |
| AGGTTAAGCA | 1.02 ± 0.0034 |
| CCGTTTGGCA | 1.15 ± 0.022 |
| AGGGGTTGGA | 1.01 ± 0.036 |
| TTGAGGGAGA | 1.02 ± 0.058 |
| GGGAGTGATG | 0.986 ± 0.019 |
| GACTTTTTGT | 0.994 ± 0.011 |
| CAAGGGGGGC | 0.972 ± 0.03 |
| ATGTATGTGG | 0.987 ± 0.049 |
| AGGGAAGCT | 1.05 ± 0.015 |
| TTTTAAGTGG | 0.991 ± 0.023 |
| AAATCGGCGG | 0.991 ± 0.05 |
| GGTACGAACG | 1.29 ± 0.045 |
| AAATCGAAAC | 1.03 ± 0.038 |
| AGATTGTACA | 1.02 ± 0.02 |
| CAAAGTTATA | 1.0129 ± 0.00033 |
| TAGGGGGTAG | 1.01 ± 0.036 |
| GGCAACCATA | 1.02 ± 0.032 |
| TATGGGGATT | 0.991 ± 0.037 |
| AGTGTAATGT | 0.975 ± 0.059 |
| TCAGGTAATT | 1.03 ± 0.031 |
